First the molecules themselves.
T1: EAAT4, full-length glutamate transporter (rat, UniProt O35921 1-561)
T1 sequence (looked up): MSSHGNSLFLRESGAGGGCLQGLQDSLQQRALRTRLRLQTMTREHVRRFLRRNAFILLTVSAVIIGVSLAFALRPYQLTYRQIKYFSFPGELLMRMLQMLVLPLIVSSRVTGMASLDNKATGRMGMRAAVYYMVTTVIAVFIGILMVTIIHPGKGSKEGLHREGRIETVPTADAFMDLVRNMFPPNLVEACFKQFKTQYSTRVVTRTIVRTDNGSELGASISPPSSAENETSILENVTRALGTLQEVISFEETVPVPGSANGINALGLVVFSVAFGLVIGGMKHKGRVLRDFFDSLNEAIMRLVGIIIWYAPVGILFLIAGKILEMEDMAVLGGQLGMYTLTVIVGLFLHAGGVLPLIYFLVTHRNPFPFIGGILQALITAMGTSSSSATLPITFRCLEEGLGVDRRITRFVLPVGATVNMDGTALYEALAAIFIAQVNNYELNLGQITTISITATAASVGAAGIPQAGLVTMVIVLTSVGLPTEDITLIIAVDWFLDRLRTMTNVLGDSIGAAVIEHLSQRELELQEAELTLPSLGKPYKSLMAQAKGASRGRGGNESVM

B1: GTRAP4-48 (glutamate transporter 4 associated protein), full-length (other)
chain: MSIRLPHSIDRSASKKQSHLSSPIASWLSSLSSLGDSTPERTSPSHHRQPSDTSETTAGLVQRCVIIQKDQHGFGFTVSGDRIVLVQSVRPGGAAMKAGVKEGDRIIKVNGTMVTNSSHLEVVKLIKSGAYAALTLLGSSPPSVGVSGLQQNPSVAGVLRVNPIIPPPPPPPPLPPPQHITGPKPLQDPEVQKHATQILWNMLRQEEEELQDILPPCGETSQRTCEGRLSVDSQEADSGLDSGTERFPSISESLMNRNSVLSDPGLDSPQTSPVILARVAQHHRRQGSDAALLPLNHQGIDQSPKPLIIGPEEDYDPGYFNNESDIIFQDLEKLKSHPAYLVVFLRYILSQADPGPLLFYLCSEVYQQTNPKDSRSLGKDIWNIFLEKNAPLRVKIPEMLQAEIDLRLRNNEDPRNVLCEAQEAVMLEIQEQINDYRSKRTLGLGSLYGENDLLGLDGDPLRERQMAEKQLAALGDILSKYEEDRSAPMDFAVNTFMSHAGIRLRESRSSCTAEKTQSAPDKDKWLPFFPKTKKQSSNSKKEKDALEDKKRNPILRYIGKPKSSSQSIKPGNVRNIIQHFENSHQYDVPEPGTQRLSTGSFPEDLLESDSSRSEIRLGRSGSLKGREEMKRSRKAENVPRPRSDVDMDAAAEAARLHQSASSSASSLSTRSLENPTPPFTPKMGRRSIESPNLGFCTDVILPHLLEDDLGQLSDLEPEPEVQNWQHTVGKDVVANLTQREIDRQEVINELFVTEASHLRTLRVLDLIFYQRMRKENLMPREELARLFPNLPELIEIHNSWCEAMKKLREEGPIIRDISDPMLARFDGPAREELQQVAAQFCSYQSVALELIRTKQRKESRFQLFMQEAESHPQCRRLQLRDLIVSEMQRLTKYPLLLENIIKHTEGGTSEHEKLCRARDQCREILKFVNEAVKQTENRHRLEGYQKRLDATALERASNPLAAEFKSLDLTTRKMIHEGPLTWRISKDKTLDLQVLLLEDLVVLLQRQEERLLLKCHSKTAVGSSDSKQTFSPVLKLNAVLIRSVATDKRAFFIICTSELGPPQIYELVALTSSDKNIWMELLEEAVQNATKHPGAAPIPIHPSPPGSQEPAYQGSTSSRVEINDSEVYHTEKEPKKLPEGPGPEQRVQDKQLIAQGEPVQEEDEEELRTLPRAPPSLDGENRGIRTRDPVLLALTGPLLMEGLADAALEDVENLRHLILWSLLPGHTVKTQAAGEPEDDLTPTPSVVSITSHPWDPGSPGQAPTISDSTRLARPEGSQPEGEDVAVSSLAHLPPRTRSSGVWDSPELDRNPAAEAASTEPAASYKVVRKVSLLPGGGVGAAKVAGSNAIPDSGQSESELSEVEGGAQATGNCFYVSMPAGPLDSSTEPTGTPPSPSQCHSLPAWPTEPQPYRGVRGGQCSSLVRRDVDVIFHTIEQLTIKLHRLKDMELAHRELLKSLGGESSGGTTPVGSFHTEAARWTDYSLSPPAKEALASDSQNGQEQGSCPEEGSDIALEDSATDTAVSPGP
notes: also called GTRAP48
B2: GLT-1 glutamate transporter (other, rat, UniProt P31596 1-573, looked up)
chain: MASTEGANNMPKQVEVRMHDSHLSSEEPKHRNLGMRMCDKLGKNLLLSLTVFGVILGAVCGGLLRLAAPIHPDVVMLIAFPGDILMRMLKMLILPLIISSLITGLSGLDAKASGRLGTRAMVYYMSTTIIAAVLGVILVLAIHPGNPKLKKQLGPGKKNDEVSSLDAFLDLIRNLFPENLVQACFQQIQTVTKKVLVAPPSEEANTTKAVISLLNETMNEAPEETKIVIKKGLEFKDGMNVLGLIGFFIAFGIAMGKMGEQAKLMVEFFNILNEIVMKLVIMIMWYSPLGIACLICGKIIAIKDLEVVARQLGMYMITVIVGLIIHGGIFLPLIYFVVTRKNPFSFFAGIFQAWITALGTASSAGTLPVTFRCLEDNLGIDKRVTRFVLPVGATINMDGTALYEAVAAIFIAQMNGVILDGGQIVTVSLTATLASIGAASIPSAGLVTMLLILTAVGLPTEDISLLVAVDWLLDRMRTSVNVVGDSFGAGIVYHLSKSELDTIDSQHRMHEDIEMTKTQSVYDDTKNHRESNSNQCVYAAHNSVVIDECKVTLAANGKSADCSVEEEPWKREK
notes: whole, on cells; Native protein in solubilized rat brain
B3: GLAST glutamate transporter (other, rat, UniProt P24942 1-543, looked up)
chain: MTKSNGEEPRMGSRMERFQQGVRKRTLLAKKKVQNITKEDVKSYLFRNAFVLLTVSAVIVGTILGFALRPYKMSYREVKYFSFPGELLMRMLQMLVLPLIISSLVTGMAALDSKASGKMGMRAVVYYMTTTIIAVVIGIIIVIIIHPGKGTKENMYREGKIVQVTAADAFLDLIRNMFPPNLVEACFKQFKTSYEKRSFKVPIQANETLLGAVINNVSEAMETLTRIREEMVPVPGSVNGVNALGLVVFSMCFGFVIGNMKEQGQALREFFDSLNEAIMRLVAVIMWYAPLGILFLIAGKILEMEDMGVIGGQLAMYTVTVIVGLLIHAVIVLPLLYFLVTRKNPWVFIGGLLQALITALGTSSSSATLPITFKCLEENNGVDKRITRFVLPVGATINMDGTALYEALAAIFIAQVNNFDLNFGQIITISITATAASIGAAGIPQAGLVTMVIVLTSVGLPTDDITLIIAVDWFLDRLRTTTNVLGDSLGAGIVEHLSRHELKNRDVEMGNSVIEENEMKKPYQLIAQDNEPEKPVADSETKM
notes: as for B2
B4: EAAC1, full-length glutamate transporter (other, rat, UniProt P51907 1-523, looked up)
chain: MGKPTSSGCDWRRFLRNHWLLLSTVAAVVLGIVVGVLVRGHSELSNLDKFYFAFPGEILMRMLKLVILPLIISSMITGVAALDSNVSGKIGLRAVVYYFSTTVIAVILGIVLVVSIKPGVTQKVNEINRTGKTPEVSTVDAMLDLIRNMFPENLVQACFQQYKTKREEVKPASDPGGNQTEVSVTTAMTTMSENKTKEYKIVGLYSDGINVLGLIIFCLVFGLVIGKMGEKGQILVDFFNALSDATMKIVQIIMCYMPIGILFLIAGKIIEVEDWEIFRKLGLYMATVLSGLAIHSLVVLPLIYFIVVRKNPFRFALGMAQALLTALMISSSSATLPVTFRCAEEKNHVDKRITRFVLPVGATINMDGTALYEAVAAVFIAQLNGMDLSIGQIITISITATAASIGAAGVPQAGLVTMVIVLSAVGLPAEDVTLIIAVDWLLDRFRTMVNVLGDAFGTGIVEKLSKKELEQVDVSSEVNIVNPFALEPTILDNEDSDTKKSYVNGGFSVDKSDTISFTQTSQF
notes: whole, on cells; Used for native EAAC1 of rat brain and for EAAC1 expressed in HEK293, COS-7 and C6 glioma cells
B5: GST-EAAT4 fusion protein (full-length EAAT4 in pGEX-6P-1) (other, UniProt O35921 1-561, looked up)
chain: T1 sequence (looked up)
notes: mature; Made in BL21 cells, immobilized on glutathione-Sepharose-4B; not shown: glutathione S-transferase of vector pGEX-6P-1 (Pharmacia)

Test [1] concerns the target T2, GTRAP4-41 (glutamate transporter 4 associated protein), full-length (rat, UniProt Q9QWN8 2-2388).
T2 construct: Used for native GTRAP4-41 of rat brain and for full-length GTRAP4-41 expressed where no tag is stated (transfected HEK cells, HSV amplicon); also called GTRAP41
The test can be described thus: co-immunoprecipitation from solubilized rat brain. As to the method:
(§1) Immunoprecipitation from cerebellum lysate. Sprague-Dawley (SD) rat cerebellum was dissected, washed with 50 mM Tris-HCl (pH 7.5), 2 mM EDTA and 0.5 mM DTT, and homogenized on ice in buffer containing 20 mM Tris-HCl (pH 7.5), 10% sucrose, 1 mM EDTA, 0.1 mM PMSF, 0.3 mM aprotinin, 1 mM benamidine, 10 mg/ml leupeptine and 10 mg/ml pepstatine. Protein concentration was measured and adjusted to 2–3 mg/ml, and the homogenate was mixed in a 1:1 ratio with the solubilization buffer (homogenization buffer plus 2% Triton X-100). After 2 h, the lysate was spun at 10,000 g for 10 min. For each immunoprecipitation, […] of the Triton-lysate was incubated overnight at 4° C. with 5 μg of the anti-amino-terminal EAAT4 antibody. Immune complexes were precipitated with protein A Sepharose (Pharmacia), washed three times with 10 mM Tris-HCl (pH 7.5) and 5 mM EDTA, eluted with 3×SDS loading buffer, and processed for western blot analysis. The filters were probed with affinity purified rabbit antibodies against GTRAP4-41 and GTRAP4-48.
(§2) The GTRAP4-41 and GTRAP4-48 interaction with EAAT4 was then studied in vivo using solubilized brain preparations. GTRAP4-41 and GTRAP4-48 are co-immunoprecipitated with EAAT4 from brain by antibodies directed at the amino-terminus of EAAT4 but not by antibodies directed at the carboxy-terminus. However, since the site of interaction is within the carboxy-terminus of EAAT4, it is likely that the carboxy-terminal antibodies disrupt the protein-protein interaction. […] GTRAP4-48 is also not co-immunoprecipitated from brain with antibodies directed at GTRAP4-41.

Test [2] deals with T1, EAAT4, full-length glutamate transporter. The test can be described thus: cell-based or functional assay.
For test [3], the target named is B1. The test can be described thus: co-immunoprecipitation from solubilized rat brain. As to the method: as §1, §2
Test [4] deals with T3, myc-tagged full-length GTRAP4-48 (rat, UniProt Q9ES67 1-1527).
T3 construct: tested from solubilized cell extract; also called myc-tagged GTRAP4-48; not shown: myc tag of the myc-tagged pRK5 vector
The experiment in a line: in vitro binding assay, bead-linked GST-EAAT4 with solubilized HEK 293T extract. As for the experimental part:
(§3) GTRAP4-41 and 4-48 Immunoprecipitation with Fusion Proteins. Full-length EAAT4 was subcloned into the EcoR I site of the GST-fusion vector pGEX-6P-1 (Pharmacia). Synthesis of recombinant proteins in BL21 cells (Novagen) was induced by 0.1 mM isopropyl b-D-thiogalactoside for 2 hrs at 30° C. and prepared as a crude bacterial lysate by mild sonication in ice-cold 1 C PBS and solubilization in 1% Triton X-100. Cell debris was removed by centrifugation at 7,000 g and the cleared bacterial lysate applied to glutathione-Sepharose-4B (Pharmacia). […] The cellular lysate was incubated with GST or GST-EAAT4 immobilized on glutathione-Sepharose-4B, and washed to remove non-specifically bound proteins. Specifically bound proteins were eluted with 3×SDS loading buffer and analyzed by immunoblotting using an anti-c-myc antibody. Bands were visualized by HRP-conjugated secondary antibodies and ECL chemiluminescence (Amersham).
(§4) The biochemical interaction between GTRAP4-41 or GTRAP4-48 and EAAT4 was confirmed using an in vitro binding assay. […] The solubilized cell extracts were then mixed with bead-linked GST-EAAT4 or GST alone and the bound proteins were eluted. GTRAP4-41 and GTRAP4-48 were specifically retained by the GST-EAAT4 fusion protein, but not by GST alone.

The target in test [5] is T4, myc-tagged full-length GTRAP4-41 (rat, UniProt Q9QWN8 2-2388).
T4 construct: tested from solubilized cell extract; also called myc-tagged GTRAP4-41; not shown: myc tag of the myc-tagged pRK5 vector
The test is described as above. As for the experimental part: as §3, §4

T2 sequence (Q9QWN8 other isoform, or with tags, fused parts or gaps limits assumed): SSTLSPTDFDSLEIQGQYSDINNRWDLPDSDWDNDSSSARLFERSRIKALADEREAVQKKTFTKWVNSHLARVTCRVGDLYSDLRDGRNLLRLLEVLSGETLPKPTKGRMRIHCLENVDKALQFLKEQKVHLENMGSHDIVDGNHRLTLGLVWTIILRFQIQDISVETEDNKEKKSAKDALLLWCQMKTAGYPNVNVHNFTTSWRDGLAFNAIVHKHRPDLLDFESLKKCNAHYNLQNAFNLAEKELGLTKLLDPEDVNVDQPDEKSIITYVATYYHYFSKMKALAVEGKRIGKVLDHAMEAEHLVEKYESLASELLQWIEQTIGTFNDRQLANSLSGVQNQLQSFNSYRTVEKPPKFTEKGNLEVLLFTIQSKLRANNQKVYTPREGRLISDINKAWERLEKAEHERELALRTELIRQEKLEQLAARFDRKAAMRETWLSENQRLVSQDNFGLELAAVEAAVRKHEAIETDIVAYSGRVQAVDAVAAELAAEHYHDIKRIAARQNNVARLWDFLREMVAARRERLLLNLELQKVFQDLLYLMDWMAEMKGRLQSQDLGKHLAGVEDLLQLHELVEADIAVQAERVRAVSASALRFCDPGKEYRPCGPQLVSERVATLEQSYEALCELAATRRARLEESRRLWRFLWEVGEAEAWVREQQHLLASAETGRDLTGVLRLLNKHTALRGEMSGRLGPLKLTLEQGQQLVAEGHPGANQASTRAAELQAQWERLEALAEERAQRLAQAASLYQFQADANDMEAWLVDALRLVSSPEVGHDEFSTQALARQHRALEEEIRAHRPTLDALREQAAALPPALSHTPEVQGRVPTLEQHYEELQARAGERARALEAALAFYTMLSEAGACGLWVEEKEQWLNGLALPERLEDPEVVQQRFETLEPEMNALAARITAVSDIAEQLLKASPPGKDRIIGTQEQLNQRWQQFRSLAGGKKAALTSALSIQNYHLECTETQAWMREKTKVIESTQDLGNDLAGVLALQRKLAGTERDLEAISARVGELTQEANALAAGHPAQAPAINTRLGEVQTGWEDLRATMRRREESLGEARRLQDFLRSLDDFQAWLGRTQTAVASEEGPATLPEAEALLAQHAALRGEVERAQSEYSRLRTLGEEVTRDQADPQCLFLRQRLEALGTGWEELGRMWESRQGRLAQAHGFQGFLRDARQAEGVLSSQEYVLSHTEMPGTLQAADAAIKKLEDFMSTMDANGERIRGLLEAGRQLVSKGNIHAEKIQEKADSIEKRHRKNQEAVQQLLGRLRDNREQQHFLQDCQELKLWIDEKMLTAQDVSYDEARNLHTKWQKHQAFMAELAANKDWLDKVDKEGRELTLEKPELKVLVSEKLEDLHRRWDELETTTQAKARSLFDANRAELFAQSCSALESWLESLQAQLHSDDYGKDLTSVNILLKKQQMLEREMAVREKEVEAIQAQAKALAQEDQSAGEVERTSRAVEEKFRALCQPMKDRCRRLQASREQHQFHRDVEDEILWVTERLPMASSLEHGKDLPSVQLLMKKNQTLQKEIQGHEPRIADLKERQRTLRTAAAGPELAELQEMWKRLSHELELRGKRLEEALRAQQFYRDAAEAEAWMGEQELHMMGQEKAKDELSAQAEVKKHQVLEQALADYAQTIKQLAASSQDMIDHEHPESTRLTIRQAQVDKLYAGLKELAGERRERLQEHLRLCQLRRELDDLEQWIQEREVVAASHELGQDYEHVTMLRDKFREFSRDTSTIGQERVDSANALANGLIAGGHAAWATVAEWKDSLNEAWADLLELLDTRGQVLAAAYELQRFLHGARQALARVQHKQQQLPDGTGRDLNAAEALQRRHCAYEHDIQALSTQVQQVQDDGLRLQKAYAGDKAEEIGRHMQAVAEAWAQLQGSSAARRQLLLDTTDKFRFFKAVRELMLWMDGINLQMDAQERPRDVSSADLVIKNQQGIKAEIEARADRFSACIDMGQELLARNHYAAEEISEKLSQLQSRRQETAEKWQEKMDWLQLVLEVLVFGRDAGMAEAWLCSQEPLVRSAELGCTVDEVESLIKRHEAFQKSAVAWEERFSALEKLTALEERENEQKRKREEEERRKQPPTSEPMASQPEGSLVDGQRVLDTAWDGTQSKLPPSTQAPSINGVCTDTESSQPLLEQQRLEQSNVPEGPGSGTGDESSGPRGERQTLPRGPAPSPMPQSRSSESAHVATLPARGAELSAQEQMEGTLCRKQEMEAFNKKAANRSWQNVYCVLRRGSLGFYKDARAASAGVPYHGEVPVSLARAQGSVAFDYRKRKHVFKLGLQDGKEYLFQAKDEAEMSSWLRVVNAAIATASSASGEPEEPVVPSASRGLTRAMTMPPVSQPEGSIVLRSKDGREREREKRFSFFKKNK
T4 sequence (Q9QWN8 other isoform, or with tags, fused parts or gaps): as the sequence (Q9QWN8 other isoform, or with tags, fused parts or gaps limits assumed) above

Consider B1, for which the binding result in test [1] is listed as “no binding”. Besides, in test [2], the “Na+-dependent glutamate transport in HEK-rEAAT4 cells” value was 4 fold.
In the case of B2, the binding result in test [3] and in test [1] was “no binding” throughout.
In the case of B3, the binding result in test [3] and in test [1] was “no binding” each time.
Turning to B4, the binding result in test [3] and in test [1] was “no binding” throughout.
As to B5, the binding result in test [4] and in test [5] was “binds” in each case.
